The results in this text go back to paper PMC3616122, “Crystal Structure of KLHL3 in Complex with Cullin3” (PLoS ONE, 2013).

Series [1] concerns the molecule itself. The series is described as follows: SEC; Superdex S75 in buffer A (20 mM Tris pH 7.5, 150 mM NaCl, 1 mM TCEP, 10% v/v glycerol), elution monitored at 280 nm; proteins alone and an equimolar mixture.
Series [2] deals with T1, Cul3^NTD, N-terminal domain of Cullin3 residues 20-381 with stabilizing mutations I342R/L346D (human, UniProt Q13618 20-381, I342R | L346D).
T1 construct: residues 26-379 are in the final model; also called Cul3 N-terminal domain; source: E. coli BL21 DE3 Codon+, purified (NiNTA, TEV cleavage, Superdex S75 SEC); not shown: thioredoxin, N-terminal, cleaved; His tag, N-terminal, cleaved
T1 sequence (Q13618 20-381 I342R/L346D): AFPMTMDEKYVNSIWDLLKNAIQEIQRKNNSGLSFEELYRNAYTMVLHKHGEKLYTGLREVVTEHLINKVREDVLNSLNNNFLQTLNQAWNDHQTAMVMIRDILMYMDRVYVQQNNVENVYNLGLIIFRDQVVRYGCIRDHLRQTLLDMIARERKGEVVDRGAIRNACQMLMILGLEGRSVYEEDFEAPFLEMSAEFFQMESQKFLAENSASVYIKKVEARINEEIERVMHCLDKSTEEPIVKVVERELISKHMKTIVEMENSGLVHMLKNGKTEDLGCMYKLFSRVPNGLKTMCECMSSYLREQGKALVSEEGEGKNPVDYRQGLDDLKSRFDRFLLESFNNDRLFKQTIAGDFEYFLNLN
The series is described as follows: ITC; VP-ITC at 25°C in buffer A; KLHL3^BTB-BACK at 150 µM injected into Cul3^NTD at 15 µM; one-site binding model; a single titration for each protein. Conditions: both partners purified.

In series [3] the target is T1, Cul3^NTD, N-terminal domain of Cullin3 …. As to the kind of experiment: crystal structure; KLHL3^BTB-BACK (SER version) and Cul3^NTD mixed 1:1 at 10 mg/ml total; hanging drop, 0.1 M sodium tartrate, 17% w/v PEG 3350, room temperature; 3.5 Å; one chain of each in the asymmetric unit, BTB homodimer by a crystallographic 2-fold. Conditions: both partners purified.
Series [4] concerns the molecule itself. Described as above.

Usually stoichiometry N stands for the number of molecules, sites or subunits per partner or assembly. For orientation: Kd means a measure of binding affinity in units of concentration.

B1: KLHL3^BTB-BACK, human KLHL3 residues 27-276, wild type (domain or fragment, UniProt Q9UH77 27-276, looked up)
chain: TVNPAHMGKAFKVMNELRSKQLLCDVMIVAEDVEIEAHRVVLAACSPYFCAMFTGDMSESKAKKIEIKDVDGQTLSKLIDYIYTAEIEVTEENVQVLLPAASLLQLMDVRQNCCDFLQSQLHPTNCLGIRAFADVHTCTDLLQQANAYAEQHFPEVMLGEEFLSLSLDQVCSLISSDKLTVSSEEKVFEAVISWINYEKETRLEHMAKLMEHVRLPLLPRDYLVQTVEEEALIKNNNTCKDFLIEAMKYH
notes: KLHL3, human, residues 27-276 (BTB and BACK domains), without the surface entropy reduction mutations; PDB 4HXI holds the same limits with K87A/K89A/K90A; Removal of the His tag is told only for Cul3^NTD; also called wild-type KLHL3^BTB-BACK; source: E. coli BL21 DE3 Codon+, purified (NiNTA, Superdex S75 SEC)
Take B1: the “stoichiometry N” value in series [1] turned out to be 2. In addition, in series [2], the Kd amounted to 108 nM and the “stoichiometry N” value stood at 1.

B2: KLHL3^BTB-BACK A77E (PHAII mutation) (domain or fragment, human, UniProt Q9UH77 27-276, looked up)
chain: TVNPAHMGKAFKVMNELRSKQLLCDVMIVAEDVEIEAHRVVLAACSPYFCEMFTGDMSESKAKKIEIKDVDGQTLSKLIDYIYTAEIEVTEENVQVLLPAASLLQLMDVRQNCCDFLQSQLHPTNCLGIRAFADVHTCTDLLQQANAYAEQHFPEVMLGEEFLSLSLDQVCSLISSDKLTVSSEEKVFEAVISWINYEKETRLEHMAKLMEHVRLPLLPRDYLVQTVEEEALIKNNNTCKDFLIEAMKYH
notes: KLHL3, human, residues 27-276, PHAII patient mutation A77E introduced into the wild-type KLHL3^BTB-BACK plasmid; PDB 4HXI holds the same limits with K87A/K89A/K90A and without A77E; source: E. coli BL21 DE3 Codon+, purified (NiNTA, Superdex S75 SEC)
Regarding B2, the “stoichiometry N” value in series [1] stood at 2.

B3: KLHL3^BTB-BACK E85A (PHAII mutation) (domain or fragment, human, UniProt Q9UH77 27-276, looked up)
chain: TVNPAHMGKAFKVMNELRSKQLLCDVMIVAEDVEIEAHRVVLAACSPYFCAMFTGDMSASKAKKIEIKDVDGQTLSKLIDYIYTAEIEVTEENVQVLLPAASLLQLMDVRQNCCDFLQSQLHPTNCLGIRAFADVHTCTDLLQQANAYAEQHFPEVMLGEEFLSLSLDQVCSLISSDKLTVSSEEKVFEAVISWINYEKETRLEHMAKLMEHVRLPLLPRDYLVQTVEEEALIKNNNTCKDFLIEAMKYH
notes: KLHL3, human, residues 27-276, PHAII patient mutation E85A introduced into the wild-type KLHL3^BTB-BACK plasmid; PDB 4HXI holds the same limits with K87A/K89A/K90A and without E85A; source: E. coli BL21 DE3 Codon+, purified (NiNTA, Superdex S75 SEC)
Turning to B3, the “stoichiometry N” value in series [1] was 2.

B4: KLHL3^BTB-BACK M78V (PHAII mutation) (domain or fragment, human, UniProt Q9UH77 27-276, looked up)
chain: TVNPAHMGKAFKVMNELRSKQLLCDVMIVAEDVEIEAHRVVLAACSPYFCAVFTGDMSESKAKKIEIKDVDGQTLSKLIDYIYTAEIEVTEENVQVLLPAASLLQLMDVRQNCCDFLQSQLHPTNCLGIRAFADVHTCTDLLQQANAYAEQHFPEVMLGEEFLSLSLDQVCSLISSDKLTVSSEEKVFEAVISWINYEKETRLEHMAKLMEHVRLPLLPRDYLVQTVEEEALIKNNNTCKDFLIEAMKYH
notes: KLHL3, human, residues 27-276, PHAII patient mutation M78V introduced into the wild-type KLHL3^BTB-BACK plasmid; PDB 4HXI holds the same limits with K87A/K89A/K90A and without M78V; source: E. coli BL21 DE3 Codon+, purified (NiNTA, Superdex S75 SEC)
In the case of B4, in series [1], the “stoichiometry N” value worked out at 2.

B5: KLHL3^BTB-BACK C164F (PHAII mutation) (domain or fragment, human, UniProt Q9UH77 27-276, looked up)
chain: TVNPAHMGKAFKVMNELRSKQLLCDVMIVAEDVEIEAHRVVLAACSPYFCAMFTGDMSESKAKKIEIKDVDGQTLSKLIDYIYTAEIEVTEENVQVLLPAASLLQLMDVRQNCCDFLQSQLHPTNCLGIRAFADVHTFTDLLQQANAYAEQHFPEVMLGEEFLSLSLDQVCSLISSDKLTVSSEEKVFEAVISWINYEKETRLEHMAKLMEHVRLPLLPRDYLVQTVEEEALIKNNNTCKDFLIEAMKYH
notes: KLHL3, human, residues 27-276, PHAII patient mutation C164F introduced into the wild-type KLHL3^BTB-BACK plasmid; PDB 4HXI holds the same limits with K87A/K89A/K90A and without C164F; source: E. coli BL21 DE3 Codon+, purified (NiNTA, Superdex S75 SEC)
For the molecule B5, the “stoichiometry N” value in series [1] was found to be 2. Also, the Kd in series [2] amounted to 4100 nM.

B6: KLHL3^BTB-BACK, human KLHL3 residues 27-276, surface entropy reduction version K87A/K89A/K90A used in crystallization (domain or fragment, UniProt Q9UH77 27-276, looked up)
chain: TVNPAHMGKAFKVMNELRSKQLLCDVMIVAEDVEIEAHRVVLAACSPYFCAMFTGDMSESAAAAIEIKDVDGQTLSKLIDYIYTAEIEVTEENVQVLLPAASLLQLMDVRQNCCDFLQSQLHPTNCLGIRAFADVHTCTDLLQQANAYAEQHFPEVMLGEEFLSLSLDQVCSLISSDKLTVSSEEKVFEAVISWINYEKETRLEHMAKLMEHVRLPLLPRDYLVQTVEEEALIKNNNTCKDFLIEAMKYH
notes: KLHL3, human, residues 27-276 (BTB and BACK domains) with three lysines mutated to alanine for crystallization; residues 32-223 are in the final model; also called KLHL3^BTB-BACK (SER); source: E. coli BL21 DE3 Codon+, purified (NiNTA, Superdex S75 SEC)
For the molecule B6, the binding result in series [3] and in series [4] was “binds” in each case.
